In the supplement of paper PMC10724198 one finds protein stability index data, which are given here for 116 sequences.

± gives the standard deviation of the averaged measurements.
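Further: PSI is a weighted mean of sequencing reads over stability bins, variants kept only with over 10 reads, mCherry proximal and sfGFP distal, peptide attached via GGGS linker.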

The test system of the data set is Saccharomyces cerevisiae. As to the kind of experiment: protein stability index of tFT-peptide fusion (C-terminal peptide) (PSI (0-1 scale)); higher = more stable (slower turnover). To be noted: genetic background: wild type; temperature: 30 C.
In the case of IKGKYYEAKNKI, the protein stability index is 0.714 ± 0.054. IKKKKKKKKKRQ registered a protein stability index of 0.668 ± 0.027.

IKKKKKVRYIRI: the protein stability index came out at 0.705 ± 0.06. With IKKKKNKKENAE the figure was 0.725 ± 0.092.

For IKKKTTKTKIKK, the protein stability index came out at 0.741 ± 0.031.

In the case of IKKNKQNKIKRN, the protein stability index turned out to be 0.699 ± 0.016. With IKNRRTSKYLII the figure was 0.548 ± 0.0058; with IKPKKKEKKQEN, 0.704 ± 0.046. The sequence IKRYYLDSMKRK showed a protein stability index of 0.576 ± 0.0069. With IKSHHVIPNSCL the figure was 0.616 ± 0.058; with IKSKCIQSKETT, 0.6037 ± 0.005; with IKVRGEQAEEAE, 0.684 ± 0.04. With ILFLRFLHSVFS the figure was 0.5364 ± 0.0038. Sequence ILGPPPRLPFPS showed a protein stability index of 0.657 ± 0.012. With ILHCVCFGLFHF the figure was 0.614 ± 0.014; with ILPFSGLAFFLP, 0.677 ± 0.039. With IMGGPGLTALSR the figure was 0.729 ± 0.061; with IMGLGLASAKRM, 0.677 ± 0.073. IMGRRGEDGVID came in with a protein stability index of 0.682 ± 0.061. With INGTEYVVGRKA the figure was 0.686 ± 0.0097; with INKKETKKNKIK, 0.612 ± 0.073; with INTVGRCCGLVE, 0.681 ± 0.043.

As for IPFPSSARLRAD, the protein stability index turned out to be 0.708 ± 0.02. With IPGVPEGLRSLH the figure was 0.629 ± 0.06; with IPRGTTTFLLEV, 0.638 ± 0.041; with IPRRSSIPDKTP, 0.718 ± 0.045.

As for IPSSMWHICCLC, the protein stability index was 0.538 ± 0.025.

The sequence IQGRFYPLLEAH returned a protein stability index of 0.606 ± 0.032. Turning to IQYGSSVRREGR, the protein stability index came out at 0.72 ± 0.22.

For the sequence IRIDRNLNSLGK, the protein stability index was determined as 0.685 ± 0.017. For IRIKLTYYKSYL, the protein stability index was 0.678 ± 0.13. With IRKIIHIDNGNT, the protein stability index was found to be 0.741 ± 0.096. IRKNLIPLTIFT yielded a protein stability index of 0.538 ± 0.028. With IRMEYVNTVINK the figure was 0.642 ± 0.049. With IRPPVLTDAIHS the figure was 0.708 ± 0.013.

Consider IRPSVCQAPDMR, for which the protein stability index came out at 0.679 ± 0.042. With IRRGRQGGEHEK the figure was 0.702 ± 0.097; with IRSLSGPLSRTF, 0.673 ± 0.076. With IRYEVVDLEPRG the figure was 0.693 ± 0.15; with ISEIRHSGFTRL, 0.741 ± 0.084; with ISGTDGVRHFLG, 0.662 ± 0.018. With ISIFTCLGRFSL the figure was 0.677 ± 0.037. Consider ISLRELNEVCRS, for which the protein stability index came to 0.668 ± 0.029. With ISQNPYNGTGQE the figure was 0.6886 ± 0.001. With ISTSPRCCPRLL the figure was 0.714 ± 0.023; with ITNKKKIKDKQT, 0.593 ± 0.033; with ITQTRGPRPLAH, 0.7471 ± 0.0043. ITSFIKSDKSSK returned a protein stability index of 0.696 ± 0.029. With ITTNTESSRQSY the figure was 0.702 ± 0.014.

Take ITVFRAEVRTKK: the protein stability index worked out at 0.6846 ± 0.0054. With ITVWVLSDGIGV the figure was 0.5619 ± 0.002; with IVDYSRYVIGLE, 0.663 ± 0.0095.

The sequence IVFTPPSVTFHA registered a protein stability index of 0.825 ± 0.22. With IVLGPHNFLTIL the figure was 0.676 ± 0.018. With IVLSRVHLLVGP the figure was 0.5798 ± 0.0032; with IVPFLLFYSPPA, 0.719 ± 0.055; with IVRNDRSGPWGD, 0.756 ± 0.12.

For the sequence IYFRILKKRSKT, the protein stability index was determined as 0.639 ± 0.02. With IYGCISVYYSSG the figure was 0.562 ± 0.014. IYSPLSPSTAPA displayed a protein stability index of 0.664 ± 0.012. With IYSTRWRRGRVE the figure was 0.699 ± 0.044; with KAAQREVDLLVT, 0.668 ± 0.021. With KAHSFAYVINCL the figure was 0.589 ± 0.045; with KAKKLRKKNENK, 0.671 ± 0.038.

KAKKNNERAKHR: the protein stability index turned out to be 0.681 ± 0.029. With KDATVILSSRRR the figure was 0.745 ± 0.024. With KDCGSVRQGLRY the figure was 0.754 ± 0.04; with KDGAGGDWDVGE, 0.6948 ± 0.006.

In turn, KDINNQKKETQR came in with a protein stability index of 0.683 ± 0.047. On to KDIVSQEEHAPL, for which the protein stability index is 0.678 ± 0.036.

KDNAPTLPQGGN returned a protein stability index of 0.662 ± 0.06. Turning to KDTGTNKASRGQ, the protein stability index was 0.67 ± 0.014. With KEATTEKNTTRA the figure was 0.6895 ± 0.0023; with KEILATRQKSST, 0.738 ± 0.04; with KEKSSKRSGKTE, 0.644 ± 0.15.

KENKKKNKKYKK showed a protein stability index of 0.785 ± 0.16. With KERYKNHGQKAS the figure was 0.683 ± 0.017. With KETNIKKRRARG the figure was 0.6458 ± 0.0021; with KFKGIKEINNGN, 0.633 ± 0.074; with KGGCPTASARVL, 0.5735 ± 0.0011. With KGGKVGRAGEKG the figure was 0.644 ± 0.098; with KGIGWSSDGGMG, 0.67 ± 0.02. With KGKGREEEDISK, the protein stability index turned out to be 0.674 ± 0.015. With KGKKTTKTDAKK the figure was 0.612 ± 0.061; with KGKRGKKKEESN, 0.6515 ± 0.0039; with KGNDQVLRLFIR, 0.73 ± 0.021.

In the case of KGNRGKDAVKTE, the protein stability index stood at 0.7556 ± 0.004. With KGRFILKCKDIF the figure was 0.637 ± 0.071; with KGRFTKTKLRVH, 0.5602 ± 0.0013; with KGRGEVGTRRYG, 0.638 ± 0.079.

For the sequence KGRSKHIKGKRR, the protein stability index stood at 0.743 ± 0.033.

KGTKIGRPVRVI displayed a protein stability index of 0.689 ± 0.016. The sequence KHLNFNTNKRKD came in with a protein stability index of 0.651 ± 0.0093. With KHPMRLPHTRRA the figure was 0.706 ± 0.045; with KHTNWGKQLIMT, 0.5631 ± 0.0016; with KICHTKKKNKKK, 0.769 ± 0.046. KIGSQLAGYKIS came in with a protein stability index of 0.595 ± 0.063. With KIKKKKKNTKTK the figure was 0.666 ± 0.047. Sequence KIKKRRKKDNKR came in with a protein stability index of 0.7145 ± 0.0013. With KIKSKKEKPQVT the figure was 0.687 ± 0.023; with KIKTKKGTKKRK, 0.677 ± 0.039. With KIRINKKVKNKK the figure was 0.671 ± 0.005; with KITLKSNKTTDN, 0.741 ± 0.018; with KIVCTLGPAFAR, 0.672 ± 0.051. With KIVKNQKKKKQR the figure was 0.732 ± 0.019. Sequence KKARGYTLEQRR gave a protein stability index of 0.736 ± 0.051. With KKEEEGNREEKL the figure was 0.689 ± 0.038; with KKEEEGRTKECR, 0.694 ± 0.093.

As to KKEEKKKNKNDR, the protein stability index was 0.679 ± 0.027.

Turning to KKEISEKTNKKL, the protein stability index turned out to be 0.69 ± 0.012. With KKEKKVKKNRKR the figure was 0.729 ± 0.021; with KKEKQKKKIKTK, 0.703 ± 0.055; with KKERTGTKKKKK, 0.698 ± 0.048. With KKESNFVKKKEI the figure was 0.741 ± 0.024; with KKGIKEYYKVQK, 0.775 ± 0.16; with KKHEKVKSNTKR, 0.666 ± 0.03.
